{"source": "paper PMC12392934", "about": "“TCP19 regulates nitrogen‐dependent sheath blight susceptibility by modulating nitrogen uptake and signalling in rice”", "binders": {"B1": {"name": "pAMT1;2-PBE (dsDNA)", "DNA 1": "ACCAAAACACATGAAATCCT", "DNA 2": "AGGATTTCATGTGTTTTGGT"}, "B2": {"name": "pDEP1-PBE (dsDNA)", "DNA 1": "GATGCACACATGAAGATCGT", "DNA 2": "ACGATCTTCATGTGTGCATC"}, "B3": {"name": "pNRT1.1B-PBE (dsDNA)", "DNA 1": "ACACACACATGTGTTGTAAT", "DNA 2": "ATTACAACACATGTGTGTGT"}}}
{"target": "T1, GST-PIL15 (Oryza sativa, UniProt Q0JNI9 1-637)", "T1 sequence": "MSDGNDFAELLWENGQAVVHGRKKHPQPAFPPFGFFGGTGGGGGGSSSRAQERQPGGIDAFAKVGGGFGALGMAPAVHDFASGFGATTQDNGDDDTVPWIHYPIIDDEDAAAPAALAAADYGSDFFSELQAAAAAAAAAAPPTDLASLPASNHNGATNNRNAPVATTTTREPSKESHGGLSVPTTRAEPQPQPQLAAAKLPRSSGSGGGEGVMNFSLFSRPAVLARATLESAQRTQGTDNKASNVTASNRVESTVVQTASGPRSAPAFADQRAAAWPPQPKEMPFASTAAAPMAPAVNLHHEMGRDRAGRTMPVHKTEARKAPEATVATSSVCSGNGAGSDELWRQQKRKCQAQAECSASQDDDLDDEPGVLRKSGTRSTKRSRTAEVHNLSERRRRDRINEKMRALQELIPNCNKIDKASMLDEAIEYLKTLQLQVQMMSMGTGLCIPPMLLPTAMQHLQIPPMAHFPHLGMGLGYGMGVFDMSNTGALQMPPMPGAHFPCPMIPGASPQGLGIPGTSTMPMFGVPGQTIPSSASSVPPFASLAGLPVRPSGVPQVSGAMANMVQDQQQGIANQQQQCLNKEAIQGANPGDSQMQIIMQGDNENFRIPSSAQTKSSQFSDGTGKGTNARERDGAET", "test": "EMSA; Chemiluminescent EMSA kit (Thermo Fisher); buffer, salt, pH and temperature not stated", "details": "protein: recombinant; tags: N-terminal GST (pGEX-5X-1); chain copies: 2; label: biotin (ends); blunt"}
{"binder": "B1", "binding result": "binds"}
{"binder": "B2", "binding result": "binds"}
{"binder": "B3", "binding result": "binds"}
